Reference: publication PMC12018148

B1: protein Z-dependent protease inhibitor (ZPI), wild type, recombinant human (natural protein)
chain: LAPSPQSPETPAPQNQTSRVVQAPKEEEEDEQEASEEKASEEEKAWLMASRQQLAKETSNFGFSLLRKISMRHDGNMVFSPFGMSLAMTGLMLGATGPTETQIKRGLHLQALKPTKPGLLPSLFKGLRETLSRNLELGLTQGSFAFIHKDFDVKETFFNLSKRYFDTECVPMNFRNASQAKRLMNHYINKETRGKIPKLFDEINPETKLILVDYILFKGKWLTPFDPVFTEVDTFHLDKYKTIKVPMMYGAGKFASTFDKNFRCHVLKLPYQGNATMLVVLMEKMGDHLALEDYLTTDLVETWLRNMKTRNMEVFFPKFKLDQKYEMHELLRQMGIRRIFSPFADLSELSATGRNLQVSRVLQRTVIEVDERGTEAVAGILSEITAYSMPPVIKVDRPFHFMIYEETSGMLLFLGRVVNPTLL
B2: D293A ZPI (protein Z-dependent protease inhibitor with Asp 293 mutated to Ala), recombinant human (natural protein)
chain: LAPSPQSPETPAPQNQTSRVVQAPKEEEEDEQEASEEKASEEEKAWLMASRQQLAKETSNFGFSLLRKISMRHDGNMVFSPFGMSLAMTGLMLGATGPTETQIKRGLHLQALKPTKPGLLPSLFKGLRETLSRNLELGLTQGSFAFIHKDFDVKETFFNLSKRYFDTECVPMNFRNASQAKRLMNHYINKETRGKIPKLFDEINPETKLILVDYILFKGKWLTPFDPVFTEVDTFHLDKYKTIKVPMMYGAGKFASTFDKNFRCHVLKLPYQGNATMLVVLMEKMGDHLALEAYLTTDLVETWLRNMKTRNMEVFFPKFKLDQKYEMHELLRQMGIRRIFSPFADLSELSATGRNLQVSRVLQRTVIEVDERGTEAVAGILSEITAYSMPPVIKVDRPFHFMIYEETSGMLLFLGRVVNPTLL
B3: D293A/Y387D ZPI (double mutant of the protein Z-dependent protease inhibitor; P1 residue Y387 changed) (natural protein)
chain: LAPSPQSPETPAPQNQTSRVVQAPKEEEEDEQEASEEKASEEEKAWLMASRQQLAKETSNFGFSLLRKISMRHDGNMVFSPFGMSLAMTGLMLGATGPTETQIKRGLHLQALKPTKPGLLPSLFKGLRETLSRNLELGLTQGSFAFIHKDFDVKETFFNLSKRYFDTECVPMNFRNASQAKRLMNHYINKETRGKIPKLFDEINPETKLILVDYILFKGKWLTPFDPVFTEVDTFHLDKYKTIKVPMMYGAGKFASTFDKNFRCHVLKLPYQGNATMLVVLMEKMGDHLALEAYLTTDLVETWLRNMKTRNMEVFFPKFKLDQKYEMHELLRQMGIRRIFSPFADLSELSATGRNLQVSRVLQRTVIEVDERGTEAVAGILSEITADSMPPVIKVDRPFHFMIYEETSGMLLFLGRVVNPTLL

Experiments:
[1] = biological target: activated factor X (FXa) (human); assay: kinetics of protease inhibition
[2] = biological target: activated factor XI (FXIa) (human); assay: kinetics of protease inhibition

activated factor X (FXa) (human), sequence (P00742 whole entry): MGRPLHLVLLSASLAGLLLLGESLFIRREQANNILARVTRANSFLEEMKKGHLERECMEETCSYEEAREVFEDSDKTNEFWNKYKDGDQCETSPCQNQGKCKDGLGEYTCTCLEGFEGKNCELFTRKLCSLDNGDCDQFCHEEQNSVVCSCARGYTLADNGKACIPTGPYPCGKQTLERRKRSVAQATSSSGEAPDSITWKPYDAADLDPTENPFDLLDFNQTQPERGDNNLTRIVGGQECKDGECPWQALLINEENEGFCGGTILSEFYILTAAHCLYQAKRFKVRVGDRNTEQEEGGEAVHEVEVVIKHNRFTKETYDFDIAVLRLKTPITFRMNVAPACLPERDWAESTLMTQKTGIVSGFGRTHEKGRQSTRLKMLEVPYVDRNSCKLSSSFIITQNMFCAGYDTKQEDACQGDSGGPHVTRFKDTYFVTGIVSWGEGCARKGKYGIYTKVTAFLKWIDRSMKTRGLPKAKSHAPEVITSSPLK

Row | Binder | ka with equimolar PZ and lipids, no FVa [1] | ka with equimolar PZ, lipids and FVa [1] | kon [1] | Kd [2] | kon [2]
1 | B1 | 1.79e+06 M⁻¹ s⁻¹ | 296000 M⁻¹ s⁻¹ | 9200 M⁻¹ s⁻¹ | 2 nM | 86200 M⁻¹ s⁻¹
2 | B2 | 85000 M⁻¹ s⁻¹ | 6800 M⁻¹ s⁻¹ | 9500 M⁻¹ s⁻¹ | 2 nM | 112000 M⁻¹ s⁻¹
3 | B3 |  |  |  |  | 2600 M⁻¹ s⁻¹
